# Legend:
# Human VEGF 165 [1] = target: T1, Human VEGF 165 (human, UniProt P15692-4 27-191, Avi tag (as printed under Tags); the tag's sequence and place are not given); assay: BLI (Gator), Avi-tagged human VEGF 165 on the probe, conjugate as analyte, 1:1 global fit; 90.5 kDa CMC, valency 9, 48.41 percent unconjugated peptide
# T1 construct: Bought reagent loaded on the BLI probes as ligand; VEGF165 is one isoform of it; also called BLI ligand, Avi tag, R&D Systems AVI-293-050
# Method: (§1) Either one or two probes per sample (one for kinetic assay and one for ligand free control if used) were equilibrated in 250 μL BLI buffer (PBS pH 7.4, 0.2% Tween and 0.2% BSA filtered at 0.2 μm) for at minimum 10 min in a Gator Bio Max plate. Ligands were diluted to a fixed concentration of 25-100 nM based on performance in pilot reactions in BLI buffer. Analytes were prepared at the top concentration determined in pilot reactions in BLI buffer and serially diluted 1:3 two to five more times using BLI buffer (Table 3). Black flat-bottom non-coated 96 well plates (Greiner Bio One Cat #655209 or similar) were loaded column-wise with 200 μL of ligand, analyte dilutions and one column of BLI buffer for each column of ligand and analyte. One well in each column of analyte was BLI buffer to be used as a blank for reference subtraction. The sample plate was placed in the Gator on a tilted platform set to 25° C. […] Next, the kinetic reads were started using the step parameters. If a ligand-free control was conducted, when kinetic reads were complete with ligand-loaded probes, the ligand free control was run using new probes that were not loaded with the ligand. The same kinetic assay timing and same sample wells were used that were analyzed with ligand loaded probes.
# (§2) When kinetic assay was complete, data was analyzed using the Gator software. […]
# Human VEGF 165 [2] = target: T1, Human VEGF 165; assay: BLI (Gator), Avi-tagged human VEGF 165 on the probe, conjugate as analyte, 1:1 global fit; 250 kDa CMC, valency 21, 44.37 percent unconjugated peptide
# Method: as §1, §2
# [3] = system: SK-MEL-28 melanoma tumors; assay: Intratumoral pharmacokinetics, in vivo imaging of Sulfo-Cy7 tagged protein after IT injection, tumor type 1; design: species or system athymic nude mice
# Method: FIG. 2A-2C show results of intra-tumoral administration in xenografts in mice. […] The intra-tumoral half-lives were calculated using exponential decay fits of region of interest (ROI) radiant efficiency of infrared-tagged treatment peptides over 168 hours. […] The intra-tumoral half-lives were calculated using exponential decay fits of ROI radiant efficiency of infrared-tagged treatment peptides over 264 hours.
# Mouse tumor models for evaluating the clearance rate of proteins from solid tumors were used to measure the intratumoral (IT) half-life of MVPs to maximize the parameters for tumor retention. Antibodies tagged using the amine-reactive Sulfo-Cy7 NHS ester (Broadpharm Cat #BP-22541) near-infrared fluorophore by the following method were used. This method was conducted under aseptic conditions. First, the dye was dissolved DMSO at 10 mg/mL concentration. Then, the protein at 5.0-10.0 mg/mL concentration was mixed with 0.1 M sodium bicarbonate at a 3:2 vol:vol ratio. Lastly, the fluorophore was added at a 1:2 protein:fluorophore molar ratio, mixed well, and incubated at room temperature for one hour on a neutator protected from the light by covering with foil. The NHS esters were quenched by adding 1.5 M Tris buffer pH 8.5 at 10% of the reaction volume and mixed on a neutator for another 10 minutes. The tagged protein was purified away from the unreacted fluorophore using a NAP-10 desalting column (illustra Cat #17-0854-01) that was equilibrated with PBS pH 7.0+0.01% Tween-20 according to the manufacturer's directions. The protein concentration and degree of Cy7 labeling was determined by the absorbance at 280 and 750 nm. […]
# Tumors were established by injecting 3×10^6 SK-MEL-28 cells mixed 1:1 with Matrigel (Corning Cat #354234) in a 0.1 mL volume subcutaneously into the right flank of 8 week old athymic nude mice (Table 6). The tumor size was monitored until it reached a size of […]. […] When the study concluded, the half-life of each treatment was determined following injection using exponential decay calculations for optical in vivo imaging (Table 7).
# [4] = system: MDA-MB-231 breast cancer tumors; design: species or system nude mice; conditions: mouse, in vivo
# T1 sequence (P15692 other isoform, or with tags, fused parts or gaps limits assumed): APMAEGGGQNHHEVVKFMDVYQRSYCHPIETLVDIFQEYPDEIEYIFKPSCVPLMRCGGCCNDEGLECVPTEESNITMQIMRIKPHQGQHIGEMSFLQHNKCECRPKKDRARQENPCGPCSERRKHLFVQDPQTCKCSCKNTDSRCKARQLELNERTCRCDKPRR
molecule,measurement,setting,value
"Conjugate 114: Anti-VEGF VHH (SEQ ID NO: 8) conjugated to 90.5 kDa CMC, valency 9 (other, C-terminal Cys thiol linked through a hydrazide-PEG2-maleimide linker to 90.5 kDa carboxymethyl cellulose, Multivalent peptide-polymer conjugate; valency 9 is the mean molar ratio of peptide to polymer; also called anti-VEGF MVP) VHH: MQVQLVESGGGLVQPGGSLRLSCAASGFAYSTYSMGWFRQAPGKEREAVATINSGTFRLWYTDSVKGRFTISRDNSKNTLYLQMNSLRPEDTAVYYCAARAWSPYSSTVDAGDFRYWGQGTLVTVSSAEAAAKEAAAKEAAAKAGC",Kd,Human VEGF 165 [1],0.966 nM
"Conjugate 115: Anti-VEGF VHH (SEQ ID NO: 8) conjugated to 250 kDa CMC, valency 21 (other, C-terminal Cys thiol linked through a hydrazide-PEG2-maleimide linker to 250 kDa carboxymethyl cellulose, Multivalent peptide-polymer conjugate; valency 21 is the mean molar ratio of peptide to polymer; also called anti-VEGF MVP) VHH: MQVQLVESGGGLVQPGGSLRLSCAASGFAYSTYSMGWFRQAPGKEREAVATINSGTFRLWYTDSVKGRFTISRDNSKNTLYLQMNSLRPEDTAVYYCAARAWSPYSSTVDAGDFRYWGQGTLVTVSSAEAAAKEAAAKEAAAKAGC",Kd,Human VEGF 165 [2],0.583 nM
"Conjugate 110: Anti-VEGF DARPin (SEQ ID NO: 1) conjugated to 700 kDa CMC, MP2H linker, valency 20 (conjugate, conjugated to 700 kDa CMC via MP2H linker; aVEGF_Gly_Cys DARPin) SNAGSDLDKKLLEAARAGQDDEVRILMANGADVNARDSTGWTPLHLAAPWGHPEIVEVLLKNGADVNAADFQGWTPLHLAAAVGHLEIVEVLLKYGADVNAQDKFGKTAFDISIDNGNEDLAEILQKAAGGGSGGGSC",IT half-life compared with unconjugated anti-VEGF DARPin and other conjugate (in words),"[3]; mouse, in vivo",longer than that of the unconjugated anti-VEGF DARPin or the peptide conjugated to a 90 kDa CMC
same,Intratumoral t1/2,"[3]; mouse, in vivo",48.7 ± 24.7 h
"Conjugate 101: Anti-VEGF DARPin (SEQ ID NO: 1) conjugated to 700 kDa CMC, MP2H linker, valency 13 (conjugate, conjugated to 700 kDa CMC via MP2H linker; aVEGF_Gly_Cys DARPin) SNAGSDLDKKLLEAARAGQDDEVRILMANGADVNARDSTGWTPLHLAAPWGHPEIVEVLLKNGADVNAADFQGWTPLHLAAAVGHLEIVEVLLKYGADVNAQDKFGKTAFDISIDNGNEDLAEILQKAAGGGSGGGSC",IT half-life compared with unconjugated anti-VEGF DARPin and other conjugate (in words),[4],longer than that of the unconjugated anti-VEGF DARPin or the peptide conjugated to a 830 kDa hyaluronic acid (HyA)
same,Intratumoral t1/2,[4],101.2 ± 34.9 h
"Conjugate 111: Anti-VEGF DARPin (SEQ ID NO: 1) conjugated to 90 kDa CMC, EMCH linker, valency 34 (conjugate, 90 kDa CMC via EMCH linker; aVEGF_Gly_Cys DARPin) SNAGSDLDKKLLEAARAGQDDEVRILMANGADVNARDSTGWTPLHLAAPWGHPEIVEVLLKNGADVNAADFQGWTPLHLAAAVGHLEIVEVLLKYGADVNAQDKFGKTAFDISIDNGNEDLAEILQKAAGGGSGGGSC",Intratumoral t1/2,"[3]; Tumor type 1 (SK-MEL-28 melanoma xenograft), 40 μL IT injection, exponential decay fit of ROI radiant efficiency over 168 hours",18.0 ± 3.4 h
"Conjugate 109: Anti-VEGF DARPin (SEQ ID NO: 1) conjugated to 830 kDa HyA, MP2H linker, valency 34 (conjugate, conjugated to 830 kDa HyA via MP2H linker; aVEGF_Gly_Cys DARPin) SNAGSDLDKKLLEAARAGQDDEVRILMANGADVNARDSTGWTPLHLAAPWGHPEIVEVLLKNGADVNAADFQGWTPLHLAAAVGHLEIVEVLLKYGADVNAQDKFGKTAFDISIDNGNEDLAEILQKAAGGGSGGGSC",Intratumoral t1/2,[4],20.5 ± 7.0 h
"Unconjugated: Unconjugated Sulfo-Cy7 tagged anti-VEGF DARPin (SEQ ID NO: 1), comparator for the conjugates (protein, Sulfo-Cy7 label; aVEGF_Gly_Cys DARPin) SNAGSDLDKKLLEAARAGQDDEVRILMANGADVNARDSTGWTPLHLAAPWGHPEIVEVLLKNGADVNAADFQGWTPLHLAAAVGHLEIVEVLLKYGADVNAQDKFGKTAFDISIDNGNEDLAEILQKAAGGGSGGGSC",Intratumoral t1/2,[4],15.1 ± 9.8 h
